According to paper PMC8395244, “The Oxoglutarate Binding Site and Regulatory Mechanism Are Conserved in Ammonium Transporter Inhibitors GlnKs from Methanococcales” (International Journal of Molecular Sciences, 2021):

Biological target: the molecule itself
Assay: crystal structure; sitting drop at 18 °C; crystallised with or without 2 mM ATP, 2 mM 2OG and 2 mM MgCl2; solved by molecular replacement with PDB 2J9D

B1: GlnK1 from Methanocaldococcus jannaschii without a C-terminal tag (MjGlnK1^woT) (natural protein)
chain: MKKVEAIIRPEKLEIVKKALSDAGYVGMTVSEVKGRGVQGGIVERYRGREYIVDLIPKVKIELVVKEEDVDNVIDIICENARTGNPGDGKIFVIPVERVVRVRTKEEGKEAL
notes: GlnK1, PII-family protein, of Methanocaldococcus jannaschii strain DSM 2661; codon-optimised synthetic gene cloned NdeI/XhoI in pET-24b(+) with a stop codon upstream of the XhoI site, so without a tag; Produced and crystallised without a tag; the crystals came from the gel filtration pool that eluted at 66 mL; also called MjGlnK1^woT-Mg-ATP/2OG; MjGlnK1 with ATP, Mg and 2OG; source: E. coli …
- stoichiometry N: 3
